Measurements taken from US20160289283A1.

Columns and labels:
Assay in all cases: cell-based or functional assay
[1] = target: human Y4 receptor (human) (UniProt P50391)
[2] = target: human Y1 receptor (human) (UniProt P25929)
[3] = target: human Y2 receptor (human) (UniProt P49146)
Sequence of human Y2 receptor (human) (P49146 whole entry): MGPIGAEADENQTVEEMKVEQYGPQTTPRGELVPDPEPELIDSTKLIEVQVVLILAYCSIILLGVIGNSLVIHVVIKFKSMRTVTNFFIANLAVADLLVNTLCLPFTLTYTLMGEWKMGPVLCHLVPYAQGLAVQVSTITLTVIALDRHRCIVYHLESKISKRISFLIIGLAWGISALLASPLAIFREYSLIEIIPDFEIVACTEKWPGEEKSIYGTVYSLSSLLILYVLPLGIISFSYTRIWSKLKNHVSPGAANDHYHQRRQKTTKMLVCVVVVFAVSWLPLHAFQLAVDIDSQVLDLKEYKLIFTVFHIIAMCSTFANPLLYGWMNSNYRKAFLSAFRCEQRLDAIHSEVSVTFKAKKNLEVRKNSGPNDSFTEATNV

Sequence of human Y1 receptor (human) (P25929 whole entry): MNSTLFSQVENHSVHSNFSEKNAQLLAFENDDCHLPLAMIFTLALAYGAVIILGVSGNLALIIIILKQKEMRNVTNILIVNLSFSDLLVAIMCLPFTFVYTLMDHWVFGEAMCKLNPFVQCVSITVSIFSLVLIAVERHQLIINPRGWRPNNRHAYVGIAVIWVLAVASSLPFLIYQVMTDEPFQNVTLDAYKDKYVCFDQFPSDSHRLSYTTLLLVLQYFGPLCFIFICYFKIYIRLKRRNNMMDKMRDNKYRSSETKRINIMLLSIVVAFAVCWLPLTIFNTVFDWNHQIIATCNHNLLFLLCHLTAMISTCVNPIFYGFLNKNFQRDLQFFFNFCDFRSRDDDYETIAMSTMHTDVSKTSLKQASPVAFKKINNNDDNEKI
Sequence of human Y4 receptor (human) (P50391 whole entry): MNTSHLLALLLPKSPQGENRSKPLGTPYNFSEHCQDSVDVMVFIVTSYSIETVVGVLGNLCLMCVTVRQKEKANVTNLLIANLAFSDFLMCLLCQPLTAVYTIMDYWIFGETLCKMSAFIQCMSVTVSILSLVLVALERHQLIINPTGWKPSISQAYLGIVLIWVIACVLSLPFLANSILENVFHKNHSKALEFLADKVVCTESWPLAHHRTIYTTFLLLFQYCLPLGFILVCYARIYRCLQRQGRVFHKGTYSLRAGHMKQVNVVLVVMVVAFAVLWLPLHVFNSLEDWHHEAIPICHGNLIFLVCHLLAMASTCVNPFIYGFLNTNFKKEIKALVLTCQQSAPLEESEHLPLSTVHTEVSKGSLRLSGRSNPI

| Substance | EC50, Actone functional potency assay [1] [nM] | EC50, Actone functional potency assay [2] [nM] | EC50, Actone functional potency assay [3] [nM] |
| --- | --- | --- | --- |
| 4-N{alpha}-(3-Methylbutanoyl)-7-N{Epsilon}-[2-[2-[2-[[2-[2-[2-[[(4S)-4-carboxy-4-[[(4S)-4-carboxy-4-(16-sulfohexadecanoylamino)butanoyl]amino]butanoyl]amino]-ethoxy]ethoxy]acetyl]amino]ethoxy]ethoxy]acetyl]-[Lys7,Gln18,Trp30,NMeArg35]hPYY(4-36) (peptide) | > 1000 | – | – |
| 4-N{alpha}-(hexanoyl)-7-N{Epsilon}-2-[2-[2-[[2-[2-[2-[[(4S)-4-carboxy-4-(16-sulfohexadecanoylamino)butanoyl]amino]ethoxy]ethoxy]acetyl]amino]ethoxy]-ethoxy]acetyl]-[Arg4,Lys7,Gln18,Trp30,NMeArg35]hPYY(4-36) (peptide) | – | > 1000 | – |
| 7-N{Epsilon}-[2-[2-[2-[[2-[2-[2-[[2-[2-[2-[[2-[2-[2-[4-[16-(1H-tetrazol-5- yl)-hexadecanoylsulfamoyl]butanoylamino]ethoxy]ethoxy]acetyl]amino]ethoxy]-ethoxy]acetyl]amino]ethoxy]ethoxy]acetyl]amino]ethoxy]ethoxy]acetyl]-[Lys7,Gln18,Trp30,NMeArg35]hPYY(3-36) (peptide) | – | > 1000 | – |

Second part, the substance after the results:

| EC50, Actone functional potency assay [1] [nM] | EC50, Actone functional potency assay [2] [nM] | EC50, Actone functional potency assay [3] [nM] | Substance |
| --- | --- | --- | --- |
| > 1000 | > 1000 | 1 | 7-N{Epsilon}-[2-[2-[2-[[2-[2-[2-[[(4S)-4-carboxy-4-(16-sulfohexadecanoylamino)-butanoyl]amino]ethoxy]ethoxy]acetyl]amino]ethoxy]ethoxy]acetyl]-[Arg4,Lys7,Gln18,Trp30]hPYY(3-36) (peptide) |
| – | > 1000 | – | 7-N{Epsilon}-[2-[2-[2-[[2-[2-[2-[[(4S)-4-carboxy-4-(16-sulfohexadecanoylamino)-butanoyl]amino]ethoxy]ethoxy]acetyl]amino]ethoxy]ethoxy]acetyl]-[Lys7,Gln18,Trp30,NMeArg35]hPYY(3-36) (peptide) |
